Source: the supplement of paper PMC5998384

System: HeLa Kyoto
Assay: thermal stability score vs G1/S (z-score of summed log2 fold changes over temperatures); higher = more thermally stable than in G1/S
[1] = cell cycle stage: early G1 (4.5 h after nocodazole release)
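Further: synchronized HeLa Kyoto cells, proteins quantified by TMT10plex mass spectrometry, three biological replicates, mitosis taken 0.5 h after nocodazole release, G1/S directly after double thymidine block.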

Sequence	thermal stability score [1]	thermal stability score (cell cycle stage: mitosis)
MAQRAVWLISHEPGTPLCGTVRFSRRYPTVEKRARVFNGASYVPVPEDGPFLKALLFELRLLDDDKDFVESRDSCSRINKTSIYGLLIGGEELWPVVAFLKNDMIYACVPLVEQTLSPRPPLISVSGVSQGFEFLFGIQDFLYSGQKNDSELNTKLSQLPDLLLQACPFGTLLDANLQNSLDNTNFASVTQPQKQPAWKTGTYKGKPQVSISITEKVKSMQYDKQGIADTWQVVGTVTCKCDLEGIMPNVTISLSLPTNGSPLQDILVHPCVTSLDSAILTSSSIDAMDDSAFSGPYKFPFTPPLESFNLCFYTSQVPVPPILGFYQMKEEEVQLRITINLKLHESVKNNFEFCEAHIPFYNRGPITHLEYKTSFGQLEVFREKSLLIWIIGQKFPKSMEISLSGTVTFGAKSHEKQPFDPICTGETAYLKLHFRILDYTLTGCYADQHSVQVFASGKPKISAHRKLISSDYYIWNSKAPAPVTYGSLLL [AP5M1]	2.33e-19	-1.74e-18
MEERERGARSAGAGSPARPPSPRLDVSSDSFDPLLALYAPRLPPIPYPNAPCFNNVAEYESFLRTGVRGGGRGRGRARGAAAGSGVPAAPGPSGRTRRRPDAPAPDPERIQRLRRLMVAKEEGDGAAGAGRRGPGRSRKAPRNVLTRMPLHEGSPLGELHRCIREGVKVNVHIRTFKGLRGVCTGFLVAFDKFWNMALTDVDETYRKPVLGKAYERDSSLTLTRLFDRLKLQDSSKKEADSKSAVEDSTLSRYSQTSTWKLASVWGRADTGRGSHKRSRSVPSSLQASAREESRSELSGRTTRTDGSSVGGTFSRATTLSRGQSRKKKRKPKVDYQQVFTRHINQIFIRGENVLLVHLAQ [LSM11]	0.976	0.837
MGKNKLLHPSLVLLLLVLLPTDASVSGKPQYMVLVPSLLHTETTEKGCVLLSYLNETVTVSASLESVRGNRSLFTDLEAENDVLHCVAFAVPKSSSNEEVMFLTVQVKGPTQEFKKRTTVMVKNEDSLVFVQTDKSIYKPGQTVKFRVVSMDENFHPLNELIPLVYIQDPKGNRIAQWQSFQLEGGLKQFSFPLSSEPFQGSYKVVVQKKSGGRTEHPFTVEEFVLPKFEVQVTVPKIITILEEEMNVSVCGLYTYGKPVPGHVTVSICRKYSDASDCHGEDSQAFCEKFSGQLNSHGCFYQQVKTKVFQLKRKEYEMKLHTEAQIQEEGTVVELTGRQSSEITRTITKLSFVKVDSHFRQGIPFFGQVRLVDGKGVPIPNKVIFIRGNEANYYSNATTDEHGLVQFSINTTNVMGTSLTVRVNYKDRSPCYGYQWVSEEHEEAHHTAYLVFSPSKSFVHLEPMSHELPCGHTQTVQAHYILNGGTLLGLKKLSFYYLIMAKGGIVRTGTHGLLVKQEDMKGHFSISIPVKSDIAPVARLLIYAVLPTGDVIGDSAKYDVENCLANKVDLSFSPSQSLPASHAHLRVTAAPQSVCALRAVDQSVLLMKPDAELSASSVYNLLPEKDLTGFPGPLNDQDNEDCINRHNVYINGITYTPVSSTNEKDMYSFLEDMGLKAFTNSKIRKPKMCPQLQQYEMHGPEGLRVGFYESDVMGRGHARLVHVEEPHTETVRKYFPETWIWDLVVVNSAGVAEVGVTVPDTITEWKAGAFCLSEDAGLGISSTASLRAFQPFFVELTMPYSVIRGEAFTLKATVLNYLPKCIRVSVQLEASPAFLAVPVEKEQAPHCICANGRQTVSWAVTPKSLGNVNFTVSAEALESQELCGTEVPSVPEHGRKDTVIKPLLVEPEGLEKETTFNSLLCPSGGEVSEELSLKLPPNVVEESARASVSVLGDILGSAMQNTQNLLQMPYGCGEQNMVLFAPNIYVLDYLNETQQLTPEIKSKAIGYLNTGYQRQLNYKHYDGSYSTFGERYGRNQGNTWLTAFVLKTFAQARAYIFIDEAHITQALIWLSQRQKDNGCFRSSGSLLNNAIKGGVEDEVTLSAYITIALLEIPLTVTHPVVRNALFCLESAWKTAQEGDHGSHVYTKALLAYAFALAGNQDKRKEVLKSLNEEAVKKDNSVHWERPQKPKAPVGHFYEPQAPSAEVEMTSYVLLAYLTAQPAPTSEDLTSATNIVKWITKQQNAQGGFSSTQDTVVALHALSKYGAATFTRTGKAAQVTIQSSGTFSSKFQVDNNNRLLLQQVSLPELPGEYSMKVTGEGCVYLQTSLKYNILPEKEEFPFALGVQTLPQTCDEPKAHTSFQISLSVSYTGSRSASNMAIVDVKMVSGFIPLKPTVKMLERSNHVSRTEVSSNHVLIYLDKVSNQTLSLFFTVLQDVPVRDLKPAIVKVYDYYETDEFAIAEYNAPCSKDLGNA [A2M]	-2.38	-0.965
